Results on 1 substance are retold here after publication PMC4837482, “The complex binding mode of the peptide hormone H2 relaxin to its receptor RXFP1” (Nature Communications, 2016).

The assay deals with T1, RXFP1 G41D42-AA (Homo sapiens, UniProt Q9HBX9, D64A/G63A).
T1 construct: transiently transfected human embryonic kidney (HEK) 293T cells expressing full-length RXFP1 and mutants; expressed in transfected cells; host or cells: HEK293T
T1 sequence (Q9HBX9 23-757 G63A/D64A limits assumed): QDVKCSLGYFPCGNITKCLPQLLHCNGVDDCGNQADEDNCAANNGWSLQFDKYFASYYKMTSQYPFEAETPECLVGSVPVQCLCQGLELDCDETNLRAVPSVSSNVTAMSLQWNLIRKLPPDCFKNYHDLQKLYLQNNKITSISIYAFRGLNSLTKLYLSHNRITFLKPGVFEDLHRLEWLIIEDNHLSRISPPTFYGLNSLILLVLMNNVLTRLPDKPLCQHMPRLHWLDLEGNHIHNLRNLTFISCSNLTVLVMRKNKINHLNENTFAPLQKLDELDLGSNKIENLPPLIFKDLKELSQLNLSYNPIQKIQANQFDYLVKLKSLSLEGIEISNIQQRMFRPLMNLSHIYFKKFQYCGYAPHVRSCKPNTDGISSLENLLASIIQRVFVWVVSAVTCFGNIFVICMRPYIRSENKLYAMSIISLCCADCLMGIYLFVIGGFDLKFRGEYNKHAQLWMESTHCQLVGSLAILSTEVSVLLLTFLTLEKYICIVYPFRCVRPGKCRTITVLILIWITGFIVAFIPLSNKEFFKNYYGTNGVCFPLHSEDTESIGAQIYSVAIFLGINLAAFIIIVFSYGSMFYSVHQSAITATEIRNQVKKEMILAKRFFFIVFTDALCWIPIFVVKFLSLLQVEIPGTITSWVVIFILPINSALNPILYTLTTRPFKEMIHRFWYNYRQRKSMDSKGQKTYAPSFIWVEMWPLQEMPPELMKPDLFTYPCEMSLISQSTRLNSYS
Put plainly: Eu-H2 relaxin saturation binding assay, transfected HEK293T cells. Conditions: construct G41D42-AA, maximum H2 concentration 15 nM.

Where only a bound is given, the exact number is not on record here.

One may read the Kd as the equilibrium constant for the complex coming apart. A high value points to lower affinity. Take “H2 relaxin: two-chain 6-kDa peptide hormone structurally related to insulin; recombinant human gene-2 H2 relaxin provided by Corthera”: the Kd was > 0.02 µM.
